The values that follow come from patent US8703915B2, “Mutant proteins and methods for producing them” (Heptares Therapeutics Limited, priority 2009, dated 2014).

The target in series [1] is T1, M4 muscarinic receptor (Homo sapiens, UniProt P08173, L74A).
T1 construct: made in house; host or cells: HEK293T cells, transient
T1 sequence (P08173 1-479 L74A): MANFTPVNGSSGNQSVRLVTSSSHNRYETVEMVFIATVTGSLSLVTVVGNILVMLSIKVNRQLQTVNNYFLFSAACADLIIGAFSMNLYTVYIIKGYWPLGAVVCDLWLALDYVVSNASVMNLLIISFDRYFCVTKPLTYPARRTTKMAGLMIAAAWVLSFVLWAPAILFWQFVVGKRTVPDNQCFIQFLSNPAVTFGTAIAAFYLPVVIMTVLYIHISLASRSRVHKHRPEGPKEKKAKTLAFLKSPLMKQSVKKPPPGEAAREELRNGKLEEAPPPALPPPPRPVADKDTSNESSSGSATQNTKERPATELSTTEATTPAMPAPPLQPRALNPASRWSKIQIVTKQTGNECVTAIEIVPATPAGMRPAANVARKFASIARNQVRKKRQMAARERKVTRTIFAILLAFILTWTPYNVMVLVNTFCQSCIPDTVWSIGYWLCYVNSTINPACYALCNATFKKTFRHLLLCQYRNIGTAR
The series is described as follows: Thermostability of M4 muscarinic receptor bound to antagonist NMS. Conditions: antagonist NMS bound, data not shown. It is filed as physicochemical. On the procedure: (§1) In order to stabilise the M4 muscarinic receptors in antagonist conformation, a systematic alanine-scan was performed to identify mutations that stabilise receptors bound to the muscarinic antagonist, NMS. […] However, L71A (three residues N-terminal of the L2.46) was identified as a stabilising mutation. This mutation increases the Tm of this receptor by about 2° C. (FIG. 8a).
(§2) A2AR-(2-316) expression was carried out by using the pRG/III-hs-MBP E. coli expression vector and DH5α cells. Cells were grown at 37° C. in 2 L flasks containing 500 mL of 2×TY medium supplemented with Ampicillin (100 μg/mL) and glucose (0.2% w/v). At OD600≈0.7, IPTG and theophylline were added at final concentrations respectively of 0.5 mM and 100 μM, and the temperature was reduced to 20° C. After 22 to 24 hours, cells were harvested in aliquots of 14 mL, centrifuged for 30 min and stored at −20° C. Both 5HT2C and M4 receptors were transiently expressed in HEK293T cells using GeneJuice transfection reagent used according to the manufacturers guidelines.
(§3) Transiently transfected mammalian cells expressing M4 were harvested about 40 hours post transfection and the receptors were solubilised in 50 mM Tris pH 7.5/250 mM NaCl/1% DDM/EDTA free protease inhibitor mix for 1 hour rotating at 4° C. The solubilised lysate was then cleared by centrifugation at 13000 rpm for 15 minutes at 4° C. The solubilised receptors were then purified on Ni-NTA beads and eluted with 100 mM histidine. The eluted receptor was used in radioligand binding assay. Thermostability of M4 was measured using 25 μL of purified receptor mixed with 95 μL of 12 nM [^3H]-NMS (final concentration of 10 nM). The sample was incubated for 60 min at 4° C., then 30 min at the specified temperature and then 30 min at 4° C. Receptor bound and free radioligand were separated using a 96-well plate gel filtration assay.

Series [2] deals with T2, M4 muscarinic receptor (Homo sapiens, UniProt P08173, L71A).
T2 construct: made in house; host or cells: HEK293T cells, transient
T2 sequence (P08173 1-479 L71A): T1 sequence (P08173 1-479 L74A) with L71A, A74L
The description is as above. The format is physicochemical. To be noted: antagonist NMS bound, versus parent M4. The method, then:
as §1, §2, §3

For series [3], the system named is M4 muscarinic receptor. The series is described as above. Conditions: bound to antagonist NMS. It is filed as physicochemical, human. The method, then: as §1, §2, §3
Series [4] deals with A2A receptor. The experiment in a line: Thermostability of A2A receptor in NECA agonist-bound state, solubilised in DDM. The format is physicochemical, human. The method, then: (§4) In order to stabilise an agonist-bound conformation, a systematic Alanine-scan was performed in order to identify mutations that may stabilise the A2A receptor bound to its full agonist NECA. In this A2A agonist-bound study, L2.46 (L48A) is the most stabilising single mutant. When NECA is bound to the solubilised receptor, removing the L48 side chain (in A2A-L48A) dramatically increases the thermostability of the ligand-receptor complex resulting in an increase of 14° C. over the wild type receptor in the detergent DDM (FIG. 5a). […] We evaluated the signalling property of the A2A receptor by over-expressing the receptor in CHO cells. A2A agonist stimulation triggers the signal transduction through the Gs-trimeric complex and increases the intracellular cAMP level. The increase in intracellular cAMP can be detected by and quantified by using an anti-cAMP Mab antibody competition assay. […] However the signalling efficacy is reduced to 30% (FIG. 6).
as §2
An aliquot of E. coli cells expressing wild type or mutant A2AR-(2-316) (14 mL) was thawed on ice and cells were resuspended in 500 μL of buffer A (50 mM Tris HCl mM/pH 7.4; 0.4 M NaCl, 250 μg/mL lysozyme (Sigma), 1 mg/mL DNAse I (Sigma), supplemented with complete EDTA-free Protease inhibitor cocktail (Roche)) and incubated 1 hour at 4° C. Samples were then sonicated 1 min at 4° C. using a cup-horn sonicator. […]

Series [5] deals with A2A receptor. The experiment in a line: Thermostability of A2A receptor in ZM241385 antagonist-bound state, solubilised in DDM. It is filed as physicochemical, human. Conditions: ZM antagonist. The method, then:
as §4
A2AR-(2-316) expression was carried out by using the pRG/III-hs-MBP E. coli expression vector and DH5α cells. Cells were grown at 37° C. in 2 L flasks containing 500 mL of 2×TY medium supplemented with Ampicillin (100 μg/mL) and glucose (0.2% w/v). At OD600≈0.7, IPTG and theophylline were added at final concentrations respectively of 0.5 mM and 100 μM, and the temperature was reduced to 20° C. […]

Series [6] deals with T3, A2A receptor (Homo sapiens, UniProt P29274, L48A).
T3 construct: transfected with 100 ng of pcDNA-3-A2A(2-316) pre-incubated with 0.3 μL of GeneJuice; expressed in transfected cells; host or cells: CHO cells, transient
The series is described as follows: cAMP functional assay (HTRF), NECA stimulation of CHO cells over-expressing A2A receptor. The format is cell-based. To be noted: cAMP, relative to A2A-WT. The method, then: as §4
(§5) This assay takes advantage of Homogeneous Time-Resolved Fluorescence (HTRF) using cAMP labeled with the dye d2 in presence of an anti-cAMP Mab labeled with Cryptate. The method is based on a competitive immunoassay between cAMP produced by cells and the cAMP labeled with the dye d2. CHO cells were grown using Glutamax Ham's F12, 10% FBS in 96-well plates, clear bottom and Black wall (Costar). Cells were seeded at a density of 12500 cells per well, grown overnight, washed with PBS and then transfected with 100 ng of pcDNA-3-A2A(2-316) pre-incubated with 0.3 μL of GeneJuice (Novagen) per well. After 48 hours of receptor expression, the medium was removed, the cells were washed in PBS then stimulated by using different NECA concentrations, in the presence of Rolipram (50 μM) and Adenosine deaminase in a total volume of 50 μL for 30 minutes. Dilution was realised in Hamf's F12/cAMP-d2 conjugate according to the manufacturer protocol, without serum. […] The plate was incubated at room temperature for 1 hour and then read using the Pherastar 96-well time-resolved fluorescence plate reader (Ex 340 nm; Em 665/620 nm).
On the technique in general: TR-FRET usually uses a lanthanide donor and a delayed reading to cut background.

Series [7] relates to A2A receptor. The description is as above. The format is cell-based, human. Conditions: intracellular cAMP, CHO cells. The method, then:
as §4, §5

Where a chain is given by its changes, count along the chain named. Names and notes keep the numbering of the source. “Also recorded” adds a separate entry of the source.

B1: M4 L2.46: M4 muscarinic receptor with L2.46 residue mutated to alanine (protein, UniProt P08173 1-479, looked up, variant L74A)
Muscarinic acetylcholine …: T1 sequence (P08173 1-479 L74A)
On to B1, for which the “effect on thermal stability” value in the series with M4 muscarinic receptor [1] is on record as “does not change the thermal stability of this receptor significantly”.

B2: L71A: M4 muscarinic receptor mutant L71A, three residues N-terminal of the L2.46 (protein, UniProt P08173 1-479, looked up, variant L71A)
Muscarinic acetylcholine …: T1 sequence (P08173 1-479 L74A) with L71A, A74L
Take B2: in the series with M4 muscarinic receptor [2], the “increase of Tm” value was “about 2 °C”. Further, in the series on M4 muscarinic receptor [3], the Tm was 36.0 °C.

B3: A2A-L48A: human adenosine A2A receptor mutant, Leu 48 (L2.46) replaced by alanine (protein, UniProt P29274 1-412, looked up, variant L48A)
Adenosine receptor A2a: MPIMGSSVYITVELAIAVLAILGNVLVCWAVWLNSNLQNVTNYFVVSAAAADIAVGVLAIPFAITISTGFCAACHGCLFIACFVLVLTQSSIFSLLAIAIDRYIAIRIPLRYNGLVTGTRAKGIIAICWVLSFAIGLTPMLGWNNCGQPKEGKNHSQGCGEGQVACLFEDVVPMNYMVYFNFFACVLVPLLLMLGVYLRIFLAARRQLKQMESQPLPGERARSTLQKEVHAAKSLAIIVGLFALCWLPLHIINCFTFFCPDCSHAPLWLMYLAIVLSHTNSVVNPFIYAYRIREFRQTFRKIIRSHVLRQQEPFKAAGTSARVLAAHGSDGEQVSLRLNGHPPGVWANGSAPHPERRPNGYALGLVSGGSAQESQGNTGLPDVELLSHELKGVCPEPPGLDDPLAQDGAGVS
For the molecule B3, in the series on A2A receptor [4] (NECA agonist-bound state (400 nM), solubilised in DDM), the Tm came to 42.5±1.0 °C. For the same molecule, in the series with A2A receptor [4] (NECA bound, detergent DDM), the “increase in thermostability over the wild type receptor” value is 14 °C. Also, in the series on A2A receptor [5], the antagonist binding result was “abolishes the binding of the antagonist; also recorded: no binding detected”. The molecule also displayed a signalling efficacy in the series with A2A receptor [6] of 30%. Besides, the pEC50 (as a rule, the EC50 on a negative log10 scale, so that one unit is a factor of ten) with A2A receptor [7] is 8.10±0.39.
